How the values were obtained:
[1] = molecular target: T1, neonatal Fc receptor (FcRn) (human, UniProt P55899 24-365; P61769 21-119); experiment: in vitro FcRn occupancy assay
T1 construct: whole, on cells; also called human FcRn

[2] = molecular target: T1, neonatal Fc receptor (FcRn); experiment: in vitro FcRn occupancy assay; reference implied to be two-armed TA-HEL-ABDEG
[3] = molecular target: T1, neonatal Fc receptor (FcRn); experiment: FcRn occupancy assay, 'previous studies'

| IC50 [1] | fold improvement in FcRn occupancy [2] | IC50 [3] | Binder |
| --- | --- | --- | --- |
| 6 nM | – | – | efgartigimod (other) DKTHTCPPCPAPELLGGPSVFLFPPKPKDTLYITREPEVTCVVVDVSHEDPEVKFNWYVDGVEVHNAKTKPREEQYNSTYRVVSVLTVLHQDWLNGKEYKCKVSNKALPAPIEKTISKAKGQPREPQVYTLPPSRDELTKNQVSLTCLVKGFYPSDIAVEWESNGQPENNYKTTPPVLDSDGSFFLYSKLTVDKSRWQQGNVFSCSVMHEALKFHYTQKSLSLSPGK |
| 14 nM | – | – | bivalent (TA) HEL-ABDEG (antibody, human IgG1, kappa, Two-armed anti-hen egg lysozyme antibody with an Fc-ABDEG region; Copies of 2 follow from 'bivalent (TA)') heavy: QVQLQESGPGLVRPSQTLSLTCTVSGFSLTGYGVNWVRQPPGRGLEWIGMIWGDGNTDYNSALKSRVTMLKDTSKNQFSLRLSSVTAADTAVYYCARERDYRLDYWGQGSLVTVSSASTKGPSVFPLAPSSKSTSGGTAALGCLVKDYFPEPVTVSWNSGALTSGVHTFPAVLQSSGLYSLSSVVTVPSSSLGTQTYICNVNHKPSNTKVDKKVEPKSCDKTHTCPPCPAPELLGGPSVFLFPPKPKDTLYITREPEVTCVVVDVSHEDPEVKFNWYVDGVEVHNAKTKPREEQYNSTYRVVSVLTVLHQDWLNGKEYKCKVSNKALPAPIEKTISKAKGQPREPQVYTLPPSRDELTKNQVSLTCLVKGFYPSDIAVEWESNGQPENNYKTTPPVLDSDGSFFLYSKLTVDKSRWQQGNVFSCSVMHEALKFHYTQKSLSLSPGK light: DIQMTQSPSSLSASVGDRVTITCRASGNIHNYLAWYQQKPGKAPKLLIYYTTTLADGVPSRFSGSGSGTDYTFTISSLQPEDIATYYCQHFWSTPRTFGQGTKVEIKRTVAAPSVFIFPPSDEQLKSGTASVVCLLNNFYPREAKVQWKVDNALQSGNSQESVTEQDSKDSTYSLSSTLTLSKADYEKHKVYACEVTHQGLSSPVTKSFNRGEC |
| 7 nM | 2 fold | – | one-armed (OA) HEL-ABDEG (antibody, human IgG1, kappa, One anti-HEL Fab joined by a natural IgG1 hinge to the N-terminus of Fc-ABDEG; The Fc is a knob-into-hole heterodimer) heavy: QVQLQESGPGLVRPSQTLSLTCTVSGFSLTGYGVNWVRQPPGRGLEWIGMIWGDGNTDYNSALKSRVTMLKDTSKNQFSLRLSSVTAADTAVYYCARERDYRLDYWGQGSLVTVSSASTKGPSVFPLAPSSKSTSGGTAALGCLVKDYFPEPVTVSWNSGALTSGVHTFPAVLQSSGLYSLSSVVTVPSSSLGTQTYICNVNHKPSNTKVDKKVEPKSCDKTHTCPPCPAPELLGGPSVFLFPPKPKDTLYITREPEVTCVVVDVSHEDPEVKFNWYVDGVEVHNAKTKPREEQYNSTYRVVSVLTVLHQDWLNGKEYKCKVSNKALPAPIEKTISKAKGQPREPQVYTLPPSRDELTKNQVSLWCLVKGFYPSDIAVEWESNGQPENNYKTTPPVLDSDGSFFLYSKLTVDKSRWQQGNVFSCSVMHEALKFHYTQKSLSLSPG DKTHTCPPCPAPELLGGPSVFLFPPKPKDTLYITREPEVTCVVVDVSHEDPEVKFNWYVDGVEVHNAKTKPREEQYNSTYRVVSVLTVLHQDWLNGKEYKCKVSNKALPAPIEKTISKAKGQPREPQVYTLPPSRDELTKNQVSLSCAVKGFYPSDIAVEWESNGQPENNYKTTPPVLDSDGSFFLVSKLTVDKSRWQQGNVFSCSVMHEALKFHYTQKSLSLSPG light: DIQMTQSPSSLSASVGDRVTITCRASGNIHNYLAWYQQKPGKAPKLLIYYTTTLADGVPSRFSGSGSGTDYTFTISSLQPEDIATYYCQHFWSTPRTFGQGTKVEIKRTVAAPSVFIFPPSDEQLKSGTASVVCLLNNFYPREAKVQWKVDNALQSGNSQESVTEQDSKDSTYSLSSTLTLSKADYEKHKVYACEVTHQGLSSPVTKSFNRGEC |
| – | – | > 100 nM | mAb37-ABDEG (parental) (antibody) chain 1: QVQLVQSGAEVMKPGSSVKVSCKASGYTFSWYHLEWVRQAPGHGLEWMGEIDPGTFTTNYNEKFKARVTFTADTSTSTAYMELSSLRSEDTAVYYCARFSHFSGSNHDYFDYWGQGTLVTVSSASTKGPSVFPLAPSSKSTSGGTAALGCLVKDYFPEPVTVSWNSGALTSGVHTFPAVLQSSGLYSLSSVVTVPSSSLGTQTYICNVNHKPSNTKVDKKVEPKSCDKTHTCPPCPAPELLGGPSVFLFPPKPKDTLYITREPEVTCVVVDVSHEDPEVKFNWYVDGVEVHNAKTKPREEQYNSTYRVVSVLTVLHQDWLNGKEYKCKVSNKALPAPIEKTISKAKGQPREPQVYTLPPSRDELTKNQVSLTCLVKGFYPSDIAVEWESNGQPENNYKTTPPVLDSDGSFFLYSKLTVDKSRWQQGNVFSCSVMHEALKFHYTQKSLSLSPG chain 2: EIVMTQSPATLSVSPGERATLSCRASQSIGTNIHWYQQKPGQAPRLLIYYASESISGIPARFSGSGSGTEFTLTISSLQSEDFAVYYCQQSWSWPTTFGGGTKVEIKRTVAAPSVFIFPPSDEQLKSGTASVVCLLNNFYPREAKVQWKVDNALQSGNSQESVTEQDSKDSTYSLSSTLTLSKADYEKHKVYACEVTHQGLSSPVTKSFNRGEC |

— patent publication US20250122288A1 (ARGENX, published 2025)
